Key:
[1] = biological target: T1, interaction of GST-Bcl-xL and Bak (Homo sapiens, UniProt Q07817); test: In vitro binding assay: inhibition of GST-Bcl-xL binding to 35S-methionine-labeled Bak; details: peptide mixed with GST-Bcl-xL 30 minutes prior to addition to the binding assay
T1 construct: made in house; host or cells: GST-Bcl-xL: E. coli; Bak: rabbit reticulocyte lysate (Promega)
Protocol: An in vitro binding assay as described herein in Example A.3. was used to measure the inhibition of GST-Bcl-xL binding to in vitro translated ^35Met-labeled Bak by a 20-amino acid peptide derived from the Bak GD domain (70-89; […] [SEQ ID NO: 36]). The peptide was mixed with the GST-Bcl-xL protein 30 minutes prior to addition to the binding assay. The concentration of peptide in the binding assay is indicated. Control assay contains no peptide.
The beads were removed by centrifugation and the supernatants were incubated with GST or GST-Bcl-xL (final concentration […]) at 4° C. for 1 hour. The GST fusion proteins and any interacting proteins were recovered by incubation for 1 hour with an additional […] of GSH-agarose beads. The beads were washed twice with NP-40 lysis buffer followed by two washes with NP-40 lysis buffer without NP-40. Proteins were eluted from the beads by incubation in SDS-PAGE sample buffer at 100° C. for 5 min and loaded onto 4-20% SDS-polyacrylamide gels. Following electrophoresis, gels were fixed and incubated in a fluorography enhancing solution (Amplify; Amersham). […]
GST-Bcl-xL, or GST-Bcl-2 is incubated with a labeled GD domain-containing protein in the presence of a test compound. Resulting protein complexes are captured on GSH-agarose beads and the amount of labeled interacting protein is measured. […]

[2] = biological target: T2, Bcl-xL/Bak GD domain interaction (Homo sapiens, UniProt Q07817); test: High through-put screening assay 2: GST-Bcl-xL binding to biotinylated Bak GD peptide on neutravidin wells, ELISA; details: competing peptide added, ELISA signal
T2 construct: made in house; host or cells: E. coli
T2 sequence (Q07817 whole entry, the tested form may be a part): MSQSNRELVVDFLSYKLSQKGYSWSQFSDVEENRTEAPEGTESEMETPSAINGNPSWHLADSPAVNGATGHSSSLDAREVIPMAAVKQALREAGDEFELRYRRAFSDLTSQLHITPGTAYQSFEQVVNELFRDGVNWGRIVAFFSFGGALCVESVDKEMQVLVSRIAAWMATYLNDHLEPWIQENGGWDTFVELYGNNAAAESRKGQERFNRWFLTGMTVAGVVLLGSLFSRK
Protocol: An assay was developed to screen for compounds that block the interaction between the Bcl-2 homologs, Bcl-xL and Bak. A synthetic peptide corresponding to the Bak GD binding domain ([…] [SEQ ID NO: 35]) was biotinylated and bound to wells coated with neutravidin. […] Peptides encompassing the GD domain from various Bcl-2 family members were tested for their ability to block GD domain-mediated interactions in this assay. Peptides tested: Bcl-w [SEQ ID NO: 39] […] ([…]), Bak [SEQ ID NO: 36]([…]), Bak-15 [SEQ ID NO: 37] ([…]), Bak-15L78A [SEQ ID NO: 38] ([…]), control (no peptide).
In a modification of the high through-put screening assay 1 described herein, wells are coated with an avidin derivative, to which a biotinylated peptide/protein is bound. A GST-fusion protein that can interact with the biotinylated peptide/protein is added in the presence or absence of test compounds. The plates are incubated and then unbound GST-fusion protein is removed by washing. The amount of GST-fusion protein specifically bound to the tethered peptide/protein is determined by ELISA using an anti-GST antibody conjugated to horse radish peroxidase. Compounds which block the interaction between the biotinylated peptide/protein and the GST-fusion protein cause a decrease in the ELISA signal.
In a specific example, an assay was developed to screen for compounds that block the interaction between the Bcl-2 homologs, Bcl-xL and Bak. A biotinylated Bak GD domain peptide (amino acid residues 71-89; N-biotinylated […] [SEQ ID NO: 35]) was bound to wells coated with neutravidin. […] Using this assay, peptides from Bcl-2 family members were identified which block the Bcl-xL/Bak GD domain interaction (FIG. 10).

T1 sequence (Q07817 whole entry): as the sequence (Q07817 whole entry, the tested form may be a part) above

inhibition of the interaction of GST-Bcl-xL and 35S-methionine-labeled Bak [1]: inhibition of the interaction
Sequence: TMGQVGRQLAIIGDDINRRY [Bak peptide, Bak GD domain peptide, amino acid residues 70-89]
inhibition of Bcl-xL/Bak GD domain binding [2]: concentration-dependent inhibition of binding

Source: patent US7358088B2, “Peptides and compositions which modulate apoptosis” (ImmunoGen, Inc., priority 1995, dated 2008)
